The values that follow come from CN111484562A.

This test addresses 人CD22(hCD22)蛋白 (human) (UniProt P20273). The test is described as follows: phage ELISA, 0.5 ug/ml hCD22 coated, phage supernatant, anti-M13-HRP.
Chain of UniProt P20273 (P20273 20-687 limits assumed): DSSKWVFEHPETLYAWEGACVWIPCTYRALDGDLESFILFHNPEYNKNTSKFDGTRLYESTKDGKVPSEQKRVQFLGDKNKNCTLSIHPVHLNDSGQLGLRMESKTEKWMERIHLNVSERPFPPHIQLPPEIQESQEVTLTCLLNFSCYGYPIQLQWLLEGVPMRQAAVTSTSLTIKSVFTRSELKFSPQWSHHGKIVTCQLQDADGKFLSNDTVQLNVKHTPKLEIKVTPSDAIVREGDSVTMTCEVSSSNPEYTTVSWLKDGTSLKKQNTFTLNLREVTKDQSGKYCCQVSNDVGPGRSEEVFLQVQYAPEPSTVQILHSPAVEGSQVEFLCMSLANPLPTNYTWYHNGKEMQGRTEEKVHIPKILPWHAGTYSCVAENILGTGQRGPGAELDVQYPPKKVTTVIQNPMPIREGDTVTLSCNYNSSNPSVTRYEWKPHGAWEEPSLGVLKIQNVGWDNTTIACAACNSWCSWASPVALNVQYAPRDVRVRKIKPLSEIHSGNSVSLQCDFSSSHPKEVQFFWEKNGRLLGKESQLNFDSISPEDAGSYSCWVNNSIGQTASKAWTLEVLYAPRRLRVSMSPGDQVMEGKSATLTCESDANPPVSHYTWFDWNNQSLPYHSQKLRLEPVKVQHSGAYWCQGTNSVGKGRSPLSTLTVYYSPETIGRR

B1: CD22抗体 (scFv单链抗体, 抗CD22) (scFv)
scFv: DIVMTQSPSSLSASVGDRVTITCRASQSINNYLNWYQQKPGKAPKLLISAASSLQSGVPSRFSGSGSGTDFTLTISSLQPEDFATYYCQQSYTTPLTFGGGTKVEIRGSTSGSGKPGSGEGSTKGQVQLQQSGPGLVESSQILSLTCAISGDSVSSNSATWNWIRLSPSRGLEWLGRTYYRSTWYNDYPASVKGRIIIDPDTSKNQFSLLLSSVTPEDTAVYYCARELVPRGATIGFDYWGQGTLVTVSS
With B1, the OD450 was greater than 1.5 OD450.
